Measurements as given in publication PMC8244513 (Current Research in Structural Biology, 2020).

Molecular target: the molecule itself
Experiment: native gel or EMSA

B1: ZnT8B-G3H6 (amino-terminal truncated, 35 kDa isoform of human zinc transporter ZnT8 / SLC30A8) (natural protein)
chain: MYHCHSGSKPTEKGANEYAYAKWKLCSASAICFIFMIAEVVGGHIAGSLAVVTDAAHLLIDLTSFLLSLFSLWLSSKPPSKRLTFGWHRAEILGALLSILCIWVVTGVLVYLACERLLYPDYQIQATVMIIVSSCAVAANIVLTVVLHQRCLGHNHKEVQANASVRAAFVHALGDLFQSISVLISALIIYFKPEYKIADPICTFIFSILVLASTITILKDFSILLMEGVPKSLNYSGVKELILAVDGVLSVHSLHIWSLTMNQVILSAHVATAASRDSQVVRREIAKALSKSFTMHSLTIQMESPVDQDPDCLFCEDPCD
  stoichiometry N: 2
